Test results published in the RNAGym collection of RNA variant scans (doi:10.7554/elife.90254).

B1: LINE1-full (parent)
chain: UACGUAGGUGGUUUUCCCCUGAUAGUGCUAAGGGGGCCUGGAAGUUUGGACUGGGCAGAGCUCAACACAGCGUGGCAAAGUGGCUGUGGCUAGACUGCCUCUCUGGAUUCCUCGUCACUCAGCAGGGCAUCUCUGAGAGAAAUGCC

Variants of: B1
Experiment: self-cleavage, relative activity (ratio to wild type); higher = more cleavage; in vitro, sequencing; the parent is a self-cleaving ribozyme
Work on UACGUAGGUGGUUUUCCCCUGAUAGUGCUAAGGGGGCCUGGAAGUUUGGACUGGGCAGAGCUCAACACAGCGAGGCAAAGUGGCUGUGGCCAGACUGCCUCUCUGGAUUCCUCGUCACUCAGCAGGGCAUCUCUGAGAGAAAUGCC [U73A U91C] yielded a self-cleavage of 0.19. Variant UACGUAGGUGGUUUUCCCCUGAUAGUGCUAAGGGGGCCUGGAAGUUUGGACUGGGCAGAGCUCAACACAGCGAGGCAAAGUGGCUGUGGCUAGACAGCCUCUCUGGAUUCCUCGUCACUCAGCAGGGCAUCUCUGAGAGAAAUGCC [U73A U96A] has a self-cleavage of 0.05. Variant UACGUAGGUGGUUUUCCCCUGAUAGUGCUAAGGGGGCCUGGAAGUUUGGACUGGGCAGAGCUCAACACAGCGAGGCAAAGUGGCUGUGGCUAGACCGCCUCUCUGGAUUCCUCGUCACUCAGCAGGGCAUCUCUGAGAGAAAUGCC [U73A U96C] has a self-cleavage of 0.1. Work on UACGUAGGUGGUUUUCCCCUGAUAGUGCUAAGGGGGCCUGGAAGUUUGGACUGGGCAGAGCUCAACACAGCGAGGCAAAGUGGCUGUGGCUAGACUGCCACUCUGGAUUCCUCGUCACUCAGCAGGGCAUCUCUGAGAGAAAUGCC [U73A U100A] yielded a self-cleavage of 0.97. With UACGUAGGUGGUUUUCCCCUGAUAGUGCUAAGGGGGCCUGGAAGUUUGGACUGGGCAGAGCUCAACACAGCGAGGCAAAGUGGCUGUGGCUAGACUGCCCCUCUGGAUUCCUCGUCACUCAGCAGGGCAUCUCUGAGAGAAAUGCC [U73A U100C] the self-cleavage was 2.71. UACGUAGGUGGUUUUCCCCUGAUAGUGCUAAGGGGGCCUGGAAGUUUGGACUGGGCAGAGCUCAACACAGCGAGGCAAAGUGGCUGUGGCUAGACUGCCUCUCUGGACUCCUCGUCACUCAGCAGGGCAUCUCUGAGAGAAAUGCC [U73A U108C] gave a self-cleavage of 2.23. In the case of UACGUAGGUGGUUUUCCCCUGAUAGUGCUAAGGGGGCCUGGAAGUUUGGACUGGGCAGAGCUCAACACAGCGAGGCAAAGUGGCUGUGGCUAGACUGCCUCUCUGGAGUCCUCGUCACUCAGCAGGGCAUCUCUGAGAGAAAUGCC [U73A U108G], the self-cleavage is reported as 0.44. UACGUAGGUGGUUUUCCCCUGAUAGUGCUAAGGGGGCCUGGAAGUUUGGACUGGGCAGAGCUCAACACAGCGAGGCAAAGUGGCUGUGGCUAGACUGCCUCUCUGGAUCCCUCGUCACUCAGCAGGGCAUCUCUGAGAGAAAUGCC [U73A U109C] showed a self-cleavage of 1.05. For UACGUAGGUGGUUUUCCCCUGAUAGUGCUAAGGGGGCCUGGAAGUUUGGACUGGGCAGAGCUCAACACAGCGAGGCAAAGUGGCUGUGGCUAGACUGCCUCUCUGGAUUCCUCGACACUCAGCAGGGCAUCUCUGAGAGAAAUGCC [U73A U115A], the self-cleavage was 1.66. In the case of UACGUAGGUGGUUUUCCCCUGAUAGUGCUAAGGGGGCCUGGAAGUUUGGACUGGGCAGAGCUCAACACAGCGAGGCAAAGUGGCUGUGGCUAGACUGCCUCUCUGGAUUCCUCGUCACUCAGCAGGGCAUCACUGAGAGAAAUGCC [U73A U132A], the self-cleavage is reported as 1.73. UACGUAGGUGGUUUUCCCCUGAUAGUGCUAAGGGGGCCUGGAAGUUUGGACUGGGCAGAGCUCAACACAGCGAGGCAAAGUGGCUGUGGCUAGACUGCCUCUCUGGAUUCCUCGUCACUCAGCAGGGCAUCCCUGAGAGAAAUGCC [U73A U132C] showed a self-cleavage of 1.53. UACGUAGGUGGUUUUCCCCUGAUAGUGCUAAGGGGGCCUGGAAGUUUGGACUGGGCAGAGCUCAACACAGCGAGGCAAAGUGGCUGUGGCUAGACUGCCUCUCUGGAUUCCUCGUCACUCAGCAGGGCAUCUCAGAGAGAAAUGCC [U73A U134A] showed a self-cleavage of 1.28. With UACGUAGGUGGUUUUCCCCUGAUAGUGCUAAGGGGGCCUGGAAGUUUGGACUGGGCAGAGCUCAACACAGCGAGGCAAAGUGGCUGUGGCUAGACUGCCUCUCUGGAUUCCUCGUCACUCAGCAGGGCAUCUCCGAGAGAAAUGCC [U73A U134C] the self-cleavage was 1.46. With UACGUAGGUGGUUUUCCCCUGAUAGUGCUAAGGGGGCCUGGAAGUUUGGACUGGGCAGAGCUCAACACAGCGAGGCAAAGUGGCUGUGGCUAGACUGCCUCUCUGGAUUCCUCGUCACUCAGCAGGGCAUCUCGGAGAGAAAUGCC [U73A U134G] the self-cleavage was 0.45. Work on UACGUAGGUGGUUUUCCCCUGAUAGUGCUAAGGGGGCCUGGAAGUUUGGACUGGGCAGAGCUCAACACAGCGAGGCAAAGUGGCUGUGGCUAGACUGCCUCUCUGGAUUCCUCGUCACUCAGCAGGGCAUCUCUGAGAGAAAAGCC [U73A U143A] yielded a self-cleavage of 1.75. Variant UACGUAGGUGGUUUUCCCCUGAUAGUGCUAAGGGGGCCUGGAAGUUUGGACUGGGCAGAGCUCAACACAGCGAGGCAAAGUGGCUGUGGCUAGACUGCCUCUCUGGAUUCCUCGUCACUCAGCAGGGCAUCUCUGAGAGAAACGCC [U73A U143C] has a self-cleavage of 1.4. UACGUAGGUGGUUUUCCCCUGAUAGUGCUAAGGGGGCCUGGAAGUUUGGACUGGGCAGAGCUCAACACAGCGCGGCGAAGUGGCUGUGGCUAGACUGCCUCUCUGGAUUCCUCGUCACUCAGCAGGGCAUCUCUGAGAGAAAUGCC [U73C A77G] showed a self-cleavage of 2.78. Variant UACGUAGGUGGUUUUCCCCUGAUAGUGCUAAGGGGGCCUGGAAGUUUGGACUGGGCAGAGCUCAACACAGCGCGGCACAGUGGCUGUGGCUAGACUGCCUCUCUGGAUUCCUCGUCACUCAGCAGGGCAUCUCUGAGAGAAAUGCC [U73C A78C] has a self-cleavage of 0.77. Variant UACGUAGGUGGUUUUCCCCUGAUAGUGCUAAGGGGGCCUGGAAGUUUGGACUGGGCAGAGCUCAACACAGCGCGGCAGAGUGGCUGUGGCUAGACUGCCUCUCUGGAUUCCUCGUCACUCAGCAGGGCAUCUCUGAGAGAAAUGCC [U73C A78G] has a self-cleavage of 1.12. UACGUAGGUGGUUUUCCCCUGAUAGUGCUAAGGGGGCCUGGAAGUUUGGACUGGGCAGAGCUCAACACAGCGCGGCAAUGUGGCUGUGGCUAGACUGCCUCUCUGGAUUCCUCGUCACUCAGCAGGGCAUCUCUGAGAGAAAUGCC [U73C A79U] gave a self-cleavage of 1.65. UACGUAGGUGGUUUUCCCCUGAUAGUGCUAAGGGGGCCUGGAAGUUUGGACUGGGCAGAGCUCAACACAGCGCGGCAAAGUGGCUGUGGCUGGACUGCCUCUCUGGAUUCCUCGUCACUCAGCAGGGCAUCUCUGAGAGAAAUGCC [U73C A92G] gave a self-cleavage of 0.16. UACGUAGGUGGUUUUCCCCUGAUAGUGCUAAGGGGGCCUGGAAGUUUGGACUGGGCAGAGCUCAACACAGCGCGGCAAAGUGGCUGUGGCUAGCCUGCCUCUCUGGAUUCCUCGUCACUCAGCAGGGCAUCUCUGAGAGAAAUGCC [U73C A94C] gave a self-cleavage of 0.32. UACGUAGGUGGUUUUCCCCUGAUAGUGCUAAGGGGGCCUGGAAGUUUGGACUGGGCAGAGCUCAACACAGCGCGGCAAAGUGGCUGUGGCUAGUCUGCCUCUCUGGAUUCCUCGUCACUCAGCAGGGCAUCUCUGAGAGAAAUGCC [U73C A94U] showed a self-cleavage of 0.69. Variant UACGUAGGUGGUUUUCCCCUGAUAGUGCUAAGGGGGCCUGGAAGUUUGGACUGGGCAGAGCUCAACACAGCGCGGCAAAGUGGCUGUGGCUAGACUGCCUCUCUGGGUUCCUCGUCACUCAGCAGGGCAUCUCUGAGAGAAAUGCC [U73C A107G] has a self-cleavage of 2.23. For UACGUAGGUGGUUUUCCCCUGAUAGUGCUAAGGGGGCCUGGAAGUUUGGACUGGGCAGAGCUCAACACAGCGCGGCAAAGUGGCUGUGGCUAGACUGCCUCUCUGGAUUCCUCGUCGCUCAGCAGGGCAUCUCUGAGAGAAAUGCC [U73C A117G], the self-cleavage was 1.23. In the case of UACGUAGGUGGUUUUCCCCUGAUAGUGCUAAGGGGGCCUGGAAGUUUGGACUGGGCAGAGCUCAACACAGCGCGGCAAAGUGGCUGUGGCUAGACUGCCUCUCUGGAUUCCUCGUCUCUCAGCAGGGCAUCUCUGAGAGAAAUGCC [U73C A117U], the self-cleavage is reported as 2.34. For UACGUAGGUGGUUUUCCCCUGAUAGUGCUAAGGGGGCCUGGAAGUUUGGACUGGGCAGAGCUCAACACAGCGCGGCAAAGUGGCUGUGGCUAGACUGCCUCUCUGGAUUCCUCGUCACUCCGCAGGGCAUCUCUGAGAGAAAUGCC [U73C A121C], the self-cleavage was 0.54. In the case of UACGUAGGUGGUUUUCCCCUGAUAGUGCUAAGGGGGCCUGGAAGUUUGGACUGGGCAGAGCUCAACACAGCGCGGCAAAGUGGCUGUGGCUAGACUGCCUCUCUGGAUUCCUCGUCACUCGGCAGGGCAUCUCUGAGAGAAAUGCC [U73C A121G], the self-cleavage is reported as 2.05. With UACGUAGGUGGUUUUCCCCUGAUAGUGCUAAGGGGGCCUGGAAGUUUGGACUGGGCAGAGCUCAACACAGCGCGGCAAAGUGGCUGUGGCUAGACUGCCUCUCUGGAUUCCUCGUCACUCAGCAGGGCUUCUCUGAGAGAAAUGCC [U73C A129U] the self-cleavage was 2.11. In the case of UACGUAGGUGGUUUUCCCCUGAUAGUGCUAAGGGGGCCUGGAAGUUUGGACUGGGCAGAGCUCAACACAGCGCGGCAAAGUGGCUGUGGCUAGACUGCCUCUCUGGAUUCCUCGUCACUCAGCAGGGCAUCUCUGGGAGAAAUGCC [U73C A136G], the self-cleavage is reported as 1.64. Work on UACGUAGGUGGUUUUCCCCUGAUAGUGCUAAGGGGGCCUGGAAGUUUGGACUGGGCAGAGCUCAACACAGCGCGGCAAAGUGGCUGUGGCUAGACUGCCUCUCUGGAUUCCUCGUCACUCAGCAGGGCAUCUCUGAGGGAAAUGCC [U73C A138G] yielded a self-cleavage of 2.26. In the case of UACGUAGGUGGUUUUCCCCUGAUAGUGCUAAGGGGGCCUGGAAGUUUGGACUGGGCAGAGCUCAACACAGCGCGGCAAAGUGGCUGUGGGUAGACUGCCUCUCUGGAUUCCUCGUCACUCAGCAGGGCAUCUCUGAGAGAAAUGCC [U73C C90G], the self-cleavage is reported as 0.01. Variant UACGUAGGUGGUUUUCCCCUGAUAGUGCUAAGGGGGCCUGGAAGUUUGGACUGGGCAGAGCUCAACACAGCGCGGCAAAGUGGCUGUGGUUAGACUGCCUCUCUGGAUUCCUCGUCACUCAGCAGGGCAUCUCUGAGAGAAAUGCC [U73C C90U] has a self-cleavage of 0.01. UACGUAGGUGGUUUUCCCCUGAUAGUGCUAAGGGGGCCUGGAAGUUUGGACUGGGCAGAGCUCAACACAGCGCGGCAAAGUGGCUGUGGCUAGACUGUCUCUCUGGAUUCCUCGUCACUCAGCAGGGCAUCUCUGAGAGAAAUGCC [U73C C98U] showed a self-cleavage of 0.36. In the case of UACGUAGGUGGUUUUCCCCUGAUAGUGCUAAGGGGGCCUGGAAGUUUGGACUGGGCAGAGCUCAACACAGCGCGGCAAAGUGGCUGUGGCUAGACUGCUUCUCUGGAUUCCUCGUCACUCAGCAGGGCAUCUCUGAGAGAAAUGCC [U73C C99U], the self-cleavage is reported as 1.06. In the case of UACGUAGGUGGUUUUCCCCUGAUAGUGCUAAGGGGGCCUGGAAGUUUGGACUGGGCAGAGCUCAACACAGCGCGGCAAAGUGGCUGUGGCUAGACUGCCUCUCUGGAUUCCUUGUCACUCAGCAGGGCAUCUCUGAGAGAAAUGCC [U73C C113U], the self-cleavage is reported as 1.85. In the case of UACGUAGGUGGUUUUCCCCUGAUAGUGCUAAGGGGGCCUGGAAGUUUGGACUGGGCAGAGCUCAACACAGCGCGGCAAAGUGGCUGUGGCUAGACUGCCUCUCUGGAUUCCUCGUCAAUCAGCAGGGCAUCUCUGAGAGAAAUGCC [U73C C118A], the self-cleavage is reported as 1.46. Work on UACGUAGGUGGUUUUCCCCUGAUAGUGCUAAGGGGGCCUGGAAGUUUGGACUGGGCAGAGCUCAACACAGCGCGGCAAAGUGGCUGUGGCUAGACUGCCUCUCUGGAUUCCUCGUCACUAAGCAGGGCAUCUCUGAGAGAAAUGCC [U73C C120A] yielded a self-cleavage of 1.97. Work on UACGUAGGUGGUUUUCCCCUGAUAGUGCUAAGGGGGCCUGGAAGUUUGGACUGGGCAGAGCUCAACACAGCGCGGCAAAGUGGCUGUGGCUAGACUGCCUCUCUGGAUUCCUCGUCACUCAGUAGGGCAUCUCUGAGAGAAAUGCC [U73C C123U] yielded a self-cleavage of 1.05.
